Experimental data as given in article PMC4383067.

Molecular target: Full-length human acetylcholinesterase (dimeric, recombinant) (human) (UniProt P22303)
Test: SEC-MALS

Substance “Full-length human acetylcholinesterase (dimeric, recombinant) (from UniProt P22303 32-614) (enzyme)” has a stoichiometry N of 2.
